Test results published in article PMC6396024, “Artemin and an Artemin-Derived Peptide, Artefin, Induce Neuronal Survival, and Differentiation Through Ret and NCAM” (Frontiers in Molecular Neuroscience, 2019).
Bridge positions count the residues as written; N and C are the ends. Ends that are not written are not given here. I, II: the chains in the order shown.

T1: recombinant human GFRα3/Fc (human, UniProt O60609 32-374)
T1 construct: GDNF family receptor alpha-3 (GFRα3), human; Commercial Fc chimera; also called GFL receptor α3; source: bought: R&D Systems
T1 sequence (looked up): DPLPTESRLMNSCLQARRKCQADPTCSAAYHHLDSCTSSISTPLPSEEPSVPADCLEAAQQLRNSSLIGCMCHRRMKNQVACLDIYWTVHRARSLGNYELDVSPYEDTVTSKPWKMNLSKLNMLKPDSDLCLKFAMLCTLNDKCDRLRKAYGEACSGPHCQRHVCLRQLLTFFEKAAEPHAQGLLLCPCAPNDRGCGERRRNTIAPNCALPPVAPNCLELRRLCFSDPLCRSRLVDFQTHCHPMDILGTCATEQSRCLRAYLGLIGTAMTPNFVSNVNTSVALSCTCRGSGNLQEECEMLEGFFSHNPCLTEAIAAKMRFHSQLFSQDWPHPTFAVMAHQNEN


How the values were obtained:
[1] = Circular dichroism spectroscopy; assay type: physicochemical; conditions: 10 μM, 10 mM NaH2PO4 pH 7.0, room temperature, tetrameric peptide
Experimental: Circular dichroism (CD) spectra were measured over the range 190–250 nm using a Jasco J-810 spectropolarimeter in cells with path length 1 mm at room temperature. The peptide was dissolved in 10 mM NaH2PO4 buffer, pH 7.0, to the final concentration 10 μM. Data were recorded at a scan speed of 20 nm/min with 10 repeat scans accumulated to obtain the final average spectra. Following the buffer subtraction, the observed ellipticity θ (mdeg) was converted to mean residue ellipticity [θ] (deg cm^2/dmol) using the following relationship [θ] = 100θ /(lcn) where ‘l’ is path length in centimeters, ‘c’ is the millimolar concentration, and ‘n’ is the number of residues in the peptide.

GFRα1 [2] = assay: SPR binding to immobilized GFRα1/Fc; conditions: artefin 15.6 μM
GFRα2 [3] = assay: SPR binding to immobilized GFRα2/Fc; conditions: artefin 15.6 μM
GFRα2 [4] = system: GFRα2; set-up: method as in Scott and Ibañéz, 2001; conditions: previously shown; ref Scott and Ibañéz, 2001; cited from earlier work
GFRα1 [5] = system: GFRα1; set-up: method as in Scott and Ibañéz, 2001; conditions: previously shown; ref Scott and Ibañéz, 2001; cited from earlier work
[6] = system: patients with lumbosacral radiculopathy; conditions: intravenous, Phase 2; particularly at the lowest dose; ref Backonja et al., 2017; cited from earlier work
Source text: (§1) Results from Phase 1 clinical trials ([Rolan et al., 2015]; [Okkerse et al., 2016]) further support the application of ARTN for treatment of peripheral nerve injury and attenuation of neuropathic pain. A recent Phase 2 trial (SPRINT) that evaluated the sa ...

[7] = system: surgically and chemically induced nerve injury models; conditions: systemic treatment; ref Gardell et al., 2003; Bennett et al., 2006; Wang et al., 2008; Wong et al., 2015; cited from earlier work
Source text: as §1

[8] = biological target: T1, recombinant human GFRα3/Fc; assay: SPR; Biacore 2000, 25°C, HBS-EP (10 mM HEPES pH 7.4, 150 mM NaCl, 3 mM EDTA, 0.005% P20); ARTN (~2300 RU) or artefin (~1600 RU) amine-coupled on a CM4 chip; serially diluted GFRα3/Fc or NCAM Ig1–3 injected at 20 μl/min; 1:1 interaction model or steady-state affinity analysis; conditions: both partners purified
[9] = biological target: T2, recombinant rat NCAM Ig1–3 (rat, UniProt P13596 20-308); assay: as above; conditions: both partners purified
T2 construct: neural cell adhesion molecule (NCAM), rat, Ig1–3 domains; also called NCAM Ig1–3 domain; source: recombinant, produced as described previously (Soroka et al., 2003)

mice = conditions: intracerebroventricular, ref Mannelli et al., 2011; cited from earlier work
Source text: (§2) Artemin (ARTN) is a member of the glial cell line-derived neurotrophic factor family ligands (GFLs) which includes three other members: glial cell line-derived neurotrophic factor (GDNF), neurturin (NRTN), and persephin (PSPN) ([Baloh et al., 1998b]; [Airaksinen and Saarma, 2002]). GFLs affect the generation, survival, and growth of neurons in different CNS neuronal populations, including midbrain dopaminergic neurons, central motor neurons, and noradrenergic neurons ([Airaksinen and Saarma, 2002]). Similar to GDNF, ARTN is a potential neuroprotective agent as it promotes the survival of dopam ...

dopaminergic neurons = conditions: in vitro; ref Rosenblad et al., 2000; Sariola and Saarma, 2003; cited from earlier work
Source text: as §2

T2 sequence (P13596 20-308): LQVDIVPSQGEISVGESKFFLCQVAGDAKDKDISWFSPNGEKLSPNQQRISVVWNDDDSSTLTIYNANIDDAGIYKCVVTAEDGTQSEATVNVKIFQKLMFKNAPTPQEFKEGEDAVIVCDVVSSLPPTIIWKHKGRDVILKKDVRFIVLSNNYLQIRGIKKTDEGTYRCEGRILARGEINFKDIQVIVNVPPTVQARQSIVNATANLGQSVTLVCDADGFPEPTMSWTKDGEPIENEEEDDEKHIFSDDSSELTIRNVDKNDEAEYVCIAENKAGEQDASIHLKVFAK

| Molecule | far-UV CD bands ([1]; 190–250 nm) | secondary structure in solution (far-UV CD) [1] | binding to GFRα1 (GFRα1 [2]) | binding to GFRα2 (GFRα2 [3]) | interaction with GFRα2 (GFRα2 [4]) | interaction with GFRα1 (GFRα1 [5]) | reducing pain in patients with lumbosacral radiculopathy [6] | effect on behavioral symptoms of neuropathic pain [7] | Kd [8] | Kd [9] | antidepressant effects (mice) | survival of dopaminergic neurons (dopaminergic neurons) |
| --- | --- | --- | --- | --- | --- | --- | --- | --- | --- | --- | --- | --- |
| I: RSPHDLSLASLLGAGKK-NH2 / II: RSPHDLSLASLLGAGK / III: RSPHDLSLASLLGAG / IV: RSPHDLSLASLLGAG (amide I:16-IV:C, I:17-II:C, II:16-III:C; C-terminus assumed) [artefin] | negative band at 208 nm, a shoulder at 222 nm, and a positive band at 193 nm | a-helix confirmation is dominant | binds to GFRα1 | binds to GFRα1 and GFRα2 |  |  |  |  |  |  |  |  |
| recombinant human Artemin (ARTN) (ligand, UniProt Q5T4W7 108-220, looked up, Artemin (ARTN), human, UniProt D3DPX9; source: bought: R&D Systems) AGGPGSRARAAGARGCRLRSQLVPVRALGLGHRSDELVRFRFCSGSCRRARSPHDLSLASLLGAGALRPPPGSRPVSQPCCRPTRYEAVSFMDVNSTWRTVDRLSATACGCLG |  |  |  |  | previously been shown to interact with GFRα1and GFRα2 | previously been shown to interact with GFRα1 | showed evidence of pain relief | mitigates behavioral symptoms associated with neuropathic pain | 0.0027 µM | 13 µM | dose-dependent antidepressant effects | promotes the survival of dopaminergic neurons in vitro |
